Source: the supplement of paper PMC10065799, “High-throughput profiling of sequence recognition by tyrosine kinases and SH2 domains using bacterial peptide display” (eLife, 2023)

How the values were obtained:
AncSZ = experiment: phosphorylation enrichment, bacterial display (enrichment ratio); higher = better substrate or ligand; peptides without Tyr show the background
EPHB1 = EPHB1 (UniProt P54762); experiment: as above
EPHB2 = EPHB2 (UniProt P29323); experiment: as above
FGFR1 = FGFR1 (UniProt P11362); experiment: as above
FGFR3 = FGFR3 (UniProt P22607); experiment: as above
Chain of FGFR3 (P22607 whole entry, looked up): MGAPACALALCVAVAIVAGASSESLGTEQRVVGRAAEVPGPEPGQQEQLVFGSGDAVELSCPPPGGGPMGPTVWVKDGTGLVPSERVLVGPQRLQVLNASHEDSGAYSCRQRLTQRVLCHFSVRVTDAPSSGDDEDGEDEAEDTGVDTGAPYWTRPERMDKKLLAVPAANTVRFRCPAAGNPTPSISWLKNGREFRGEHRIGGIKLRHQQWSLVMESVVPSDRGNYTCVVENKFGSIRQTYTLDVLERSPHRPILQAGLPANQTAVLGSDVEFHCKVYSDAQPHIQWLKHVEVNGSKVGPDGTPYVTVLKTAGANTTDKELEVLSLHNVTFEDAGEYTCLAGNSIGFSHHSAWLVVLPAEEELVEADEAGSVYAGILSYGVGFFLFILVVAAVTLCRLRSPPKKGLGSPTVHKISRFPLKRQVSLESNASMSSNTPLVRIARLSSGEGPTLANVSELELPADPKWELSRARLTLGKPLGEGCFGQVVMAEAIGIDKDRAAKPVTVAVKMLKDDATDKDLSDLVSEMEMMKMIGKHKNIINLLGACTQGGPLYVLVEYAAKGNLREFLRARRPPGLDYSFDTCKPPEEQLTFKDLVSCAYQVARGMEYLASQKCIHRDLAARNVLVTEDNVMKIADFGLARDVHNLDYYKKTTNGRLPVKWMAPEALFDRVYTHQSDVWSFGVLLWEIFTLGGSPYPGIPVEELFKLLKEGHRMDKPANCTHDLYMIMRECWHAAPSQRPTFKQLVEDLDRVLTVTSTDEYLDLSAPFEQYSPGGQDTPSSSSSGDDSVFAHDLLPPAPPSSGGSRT

Fer (mouse) = experiment: as above
Fes = Fes (UniProt P07332); experiment: as above
Fyn = Fyn (UniProt P06241); experiment: as above
Hck = Hck (UniProt P08631); experiment: as above
Chain of Hck (P08631 whole entry, looked up): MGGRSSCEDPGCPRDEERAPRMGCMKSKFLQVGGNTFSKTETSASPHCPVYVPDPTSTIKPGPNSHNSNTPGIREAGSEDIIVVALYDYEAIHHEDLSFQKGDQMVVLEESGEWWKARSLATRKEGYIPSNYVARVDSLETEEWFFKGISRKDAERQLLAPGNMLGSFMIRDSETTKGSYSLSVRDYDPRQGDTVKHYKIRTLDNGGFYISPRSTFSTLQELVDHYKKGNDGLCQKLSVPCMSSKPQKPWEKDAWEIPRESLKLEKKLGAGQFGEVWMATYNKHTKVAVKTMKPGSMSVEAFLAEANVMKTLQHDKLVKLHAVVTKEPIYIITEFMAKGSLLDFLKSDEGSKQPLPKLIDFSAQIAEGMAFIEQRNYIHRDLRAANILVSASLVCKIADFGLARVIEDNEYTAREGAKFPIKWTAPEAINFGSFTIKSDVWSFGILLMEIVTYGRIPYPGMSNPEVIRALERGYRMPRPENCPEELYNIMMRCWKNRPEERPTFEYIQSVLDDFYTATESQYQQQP

Jak2 = Jak2 (UniProt O60674); experiment: as above
Chain of Jak2 (O60674 whole entry, looked up): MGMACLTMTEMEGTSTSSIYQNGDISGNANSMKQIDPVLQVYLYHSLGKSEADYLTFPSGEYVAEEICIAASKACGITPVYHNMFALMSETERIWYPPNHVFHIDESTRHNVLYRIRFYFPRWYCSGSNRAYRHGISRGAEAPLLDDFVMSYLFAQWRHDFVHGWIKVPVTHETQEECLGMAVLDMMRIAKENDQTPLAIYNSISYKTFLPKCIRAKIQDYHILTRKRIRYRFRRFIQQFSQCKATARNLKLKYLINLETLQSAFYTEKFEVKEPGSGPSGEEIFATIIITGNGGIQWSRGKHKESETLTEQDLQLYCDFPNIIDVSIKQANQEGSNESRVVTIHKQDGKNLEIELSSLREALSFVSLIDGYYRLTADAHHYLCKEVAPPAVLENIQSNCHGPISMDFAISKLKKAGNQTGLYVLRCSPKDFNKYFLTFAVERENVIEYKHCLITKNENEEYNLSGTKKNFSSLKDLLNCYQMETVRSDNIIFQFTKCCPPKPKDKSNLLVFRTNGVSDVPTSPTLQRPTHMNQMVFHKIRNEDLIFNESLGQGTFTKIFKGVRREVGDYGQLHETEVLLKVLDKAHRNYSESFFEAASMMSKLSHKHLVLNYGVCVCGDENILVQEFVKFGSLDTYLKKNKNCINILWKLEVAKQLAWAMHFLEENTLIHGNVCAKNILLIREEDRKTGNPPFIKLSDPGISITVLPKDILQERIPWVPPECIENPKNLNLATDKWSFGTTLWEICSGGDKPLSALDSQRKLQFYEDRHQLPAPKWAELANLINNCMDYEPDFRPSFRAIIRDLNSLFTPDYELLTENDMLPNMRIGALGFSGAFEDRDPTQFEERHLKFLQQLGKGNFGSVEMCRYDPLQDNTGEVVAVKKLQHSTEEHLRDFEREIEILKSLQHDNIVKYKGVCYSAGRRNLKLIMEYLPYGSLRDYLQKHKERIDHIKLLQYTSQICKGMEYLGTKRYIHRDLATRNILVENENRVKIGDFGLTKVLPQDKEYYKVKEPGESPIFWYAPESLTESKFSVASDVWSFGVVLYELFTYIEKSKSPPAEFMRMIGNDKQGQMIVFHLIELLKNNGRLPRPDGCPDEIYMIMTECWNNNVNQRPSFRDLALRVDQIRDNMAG

MERTK = MERTK (UniProt Q12866); experiment: as above
c-Abl (mouse) = experiment: as above
c-Src = experiment: as above
Grb2 SH2 = Grb2 SH2 (UniProt P62993); experiment: SH2 binding enrichment of the phosphorylated peptide, bacterial display (enrichment ratio); higher = better substrate or ligand; peptides without Tyr show the background
Chain of Grb2 SH2 (P62993 whole entry, looked up): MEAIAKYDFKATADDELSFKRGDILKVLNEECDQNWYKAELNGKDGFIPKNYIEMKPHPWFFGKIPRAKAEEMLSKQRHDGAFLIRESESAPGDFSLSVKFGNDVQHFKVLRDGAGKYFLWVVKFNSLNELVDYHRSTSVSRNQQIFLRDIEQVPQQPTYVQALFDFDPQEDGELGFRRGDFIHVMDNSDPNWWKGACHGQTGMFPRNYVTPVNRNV

SHP2-C SH2 = experiment: as above
c-Src SH2 = experiment: as above
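For SH2 binding enrichment of the phosphorylated peptide, bacterial display in this document: peptide library displayed on the E. coli surface as eCPX fusions, selected cells deep-sequenced, score is each peptide's frequency after selection divided by its frequency in the input.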
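For phosphorylation enrichment, bacterial display in this document: 11-residue human phosphosite peptides and single-mutation variants displayed on the E. coli surface, counted by deep sequencing, each peptide's frequency after selection divided by its frequency in the unselected input library; frequency after pTyr selection over input frequency; kinase dosed for 20-30% of maximal phosphorylation in three min.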

Chain of EPHB2 (P29323 whole entry, looked up): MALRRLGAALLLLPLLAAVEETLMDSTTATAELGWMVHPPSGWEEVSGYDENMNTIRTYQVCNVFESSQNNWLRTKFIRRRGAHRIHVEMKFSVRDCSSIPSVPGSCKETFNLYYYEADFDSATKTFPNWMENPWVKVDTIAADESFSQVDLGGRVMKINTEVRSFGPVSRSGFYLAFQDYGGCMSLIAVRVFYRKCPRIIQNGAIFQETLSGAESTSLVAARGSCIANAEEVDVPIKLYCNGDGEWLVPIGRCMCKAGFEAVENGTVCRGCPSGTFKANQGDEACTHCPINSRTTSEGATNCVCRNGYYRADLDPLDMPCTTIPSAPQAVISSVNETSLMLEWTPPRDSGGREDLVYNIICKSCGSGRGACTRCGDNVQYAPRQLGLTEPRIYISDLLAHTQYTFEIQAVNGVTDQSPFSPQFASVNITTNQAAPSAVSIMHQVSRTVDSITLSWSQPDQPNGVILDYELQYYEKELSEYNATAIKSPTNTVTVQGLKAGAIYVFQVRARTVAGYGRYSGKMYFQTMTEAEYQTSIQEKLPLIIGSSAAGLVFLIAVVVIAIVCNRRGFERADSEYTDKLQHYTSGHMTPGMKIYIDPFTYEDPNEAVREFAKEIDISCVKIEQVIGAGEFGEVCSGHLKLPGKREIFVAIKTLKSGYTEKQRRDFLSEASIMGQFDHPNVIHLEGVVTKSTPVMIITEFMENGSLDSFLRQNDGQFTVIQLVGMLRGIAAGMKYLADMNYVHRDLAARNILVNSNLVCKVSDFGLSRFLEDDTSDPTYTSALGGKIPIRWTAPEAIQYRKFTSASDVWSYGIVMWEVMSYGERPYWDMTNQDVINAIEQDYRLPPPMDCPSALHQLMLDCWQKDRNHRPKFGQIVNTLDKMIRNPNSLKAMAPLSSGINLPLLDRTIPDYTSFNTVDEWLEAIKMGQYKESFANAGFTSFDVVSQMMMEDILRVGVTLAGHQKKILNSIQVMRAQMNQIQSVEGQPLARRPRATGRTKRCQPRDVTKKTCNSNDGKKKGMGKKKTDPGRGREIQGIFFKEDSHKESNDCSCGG
Chain of EPHB1 (P54762 whole entry, looked up): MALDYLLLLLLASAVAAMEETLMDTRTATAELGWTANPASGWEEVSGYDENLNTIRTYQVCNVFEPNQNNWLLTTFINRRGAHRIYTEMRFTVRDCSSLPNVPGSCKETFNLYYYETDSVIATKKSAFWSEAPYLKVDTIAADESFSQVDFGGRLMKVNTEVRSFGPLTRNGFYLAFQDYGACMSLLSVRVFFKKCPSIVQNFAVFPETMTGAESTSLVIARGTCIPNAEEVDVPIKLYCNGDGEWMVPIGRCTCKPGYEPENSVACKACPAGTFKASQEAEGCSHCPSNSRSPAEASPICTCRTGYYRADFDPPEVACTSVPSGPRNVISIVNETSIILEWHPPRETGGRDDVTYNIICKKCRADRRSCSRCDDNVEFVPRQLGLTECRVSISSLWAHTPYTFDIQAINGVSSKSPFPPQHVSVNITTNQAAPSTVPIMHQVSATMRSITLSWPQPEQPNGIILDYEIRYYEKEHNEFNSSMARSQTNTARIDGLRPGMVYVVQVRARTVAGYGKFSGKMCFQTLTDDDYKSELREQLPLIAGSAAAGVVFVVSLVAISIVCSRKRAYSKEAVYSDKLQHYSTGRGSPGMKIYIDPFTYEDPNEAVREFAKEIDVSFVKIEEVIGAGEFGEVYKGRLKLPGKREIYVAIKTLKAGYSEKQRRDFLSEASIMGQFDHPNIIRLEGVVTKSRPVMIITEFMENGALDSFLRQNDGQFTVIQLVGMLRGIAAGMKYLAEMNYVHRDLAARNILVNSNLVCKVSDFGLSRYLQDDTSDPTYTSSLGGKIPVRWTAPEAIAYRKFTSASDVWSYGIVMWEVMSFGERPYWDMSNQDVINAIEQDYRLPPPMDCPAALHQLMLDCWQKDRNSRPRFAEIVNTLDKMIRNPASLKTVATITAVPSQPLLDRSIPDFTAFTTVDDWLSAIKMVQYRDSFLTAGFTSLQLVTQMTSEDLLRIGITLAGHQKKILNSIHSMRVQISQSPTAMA

Row | Sequence | phosphorylation enrichment (AncSZ) | phosphorylation enrichment (EPHB1) | phosphorylation enrichment (EPHB2) | phosphorylation enrichment (FGFR1) | phosphorylation enrichment (FGFR3) | phosphorylation enrichment (Fer (mouse)) | phosphorylation enrichment (Fes) | phosphorylation enrichment (Fyn) | phosphorylation enrichment (Hck) | phosphorylation enrichment (Jak2) | phosphorylation enrichment (MERTK) | phosphorylation enrichment (c-Abl (mouse)) | phosphorylation enrichment (c-Src) | SH2 binding enrichment (Grb2 SH2) | SH2 binding enrichment (SHP2-C SH2) | SH2 binding enrichment (c-Src SH2)
1 | ILNANCMAKRL [GLDC_Y839_Y839C] | 0.612 | 0.306 | 0.439 | 0.477 | 0.403 | 0.342 | 0.628 | 0.351 | 0.391 | 0.611 | 0.42 | 0.498 | 0.378 | 0.802 | 0.727 | 0.534
2 | ILTFKYLQKPM [KIT_Y547_YF] | 1.19 | 0.792 | 0.759 | 0.485 | 0.742 | 0.562 | 1.29 | 0.579 | 0.543 | 1.42 | 0.548 | 1.07 | 0.605 | 0.659 | 0.474 | 0.449
3 | ILTYKYLQIPM [KIT_Y547_K550I] | 1.11 | 0.7 | 0.631 | 0.785 | 0.807 | 0.389 | 0.997 | 0.422 | 0.483 | 0.817 | 0.406 | 0.706 | 0.396 | 0.893 | 3.97 | 0.929
4 | IMITDYLPLFR [INSR_Y87_L89P] | 1.09 | 0.641 | 0.651 | 0.737 | 0.729 | 0.376 | 0.985 | 0.473 | 0.755 | 2.85 | 0.427 | 0.732 | 0.577 | 1.21 | 0.857 | 0.659
5 | INASGYRVGPA [ACSM1_Y477_I479V] | 0.652 | 0.564 | 0.485 | 0.595 | 0.629 | 0.563 | 0.901 | 0.411 | 0.643 | 0.523 | 0.49 | 0.615 | 0.51 | 0.853 | 0.691 | 0.358
6 | INITIYGKTFC [EFHC1_Y177_R182C] | 1.22 | 0.656 | 0.684 | 0.581 | 0.909 | 0.617 | 1.48 | 0.532 | 0.505 | 1.38 | 0.548 | 0.982 | 0.597 | 0.881 | 0.737 | 0.538
7 | IPPRRYFCSGV [STAMBP_Y36_R38C] | 0.642 | 0.342 | 0.466 | 0.428 | 0.447 | 0.403 | 0.739 | 0.478 | 0.464 | 0.667 | 0.432 | 0.593 | 0.393 | 0.691 | 0.621 | 0.416
8 | IQRSLYDCPAS [PDGFRA_Y762_R764C] | 1.38 | 2.37 | 2.5 | 0.592 | 0.706 | 4.18 | 0.973 | 0.732 | 2.25 | 0.825 | 3.85 | 1.47 | 0.81 | 0.783 | 1.04 | 2.57
9 | IRDENYGEGSS [ACO2_Y665_G661R] | 0.917 | 0.364 | 0.422 | 0.437 | 0.559 | 0.588 | 0.936 | 0.421 | 0.925 | 0.733 | 0.46 | 0.639 | 0.481 | 0.685 | 1.01 | 0.532
10 | IRTDAYVWAMT [RPE65_Y89_R91W] | 1.07 | 0.573 | 0.6 | 0.613 | 0.75 | 0.554 | 1.11 | 0.446 | 0.517 | 0.904 | 0.413 | 0.724 | 0.372 | 0.835 | 0.698 | 0.62
11 | ISDNACQFMLT [MYH7_Y162_Y162C_YF] | 0.946 | 0.712 | 0.615 | 0.588 | 0.877 | 0.51 | 1.21 | 0.597 | 0.606 | 1.04 | 0.448 | 0.696 | 0.448 | 0.692 | 0.687 | 0.419
12 | ISIFHYAKGQP [MPZ_Y82] | 1.04 | 0.69 | 0.481 | 0.456 | 0.68 | 0.434 | 1.03 | 0.463 | 0.466 | 0.855 | 0.379 | 0.644 | 0.35 | 0.874 | 0.739 | 0.7
13 | ISITPYPAILH [IFT80_Y588] | 1.2 | 0.578 | 0.484 | 0.433 | 0.676 | 0.37 | 1.24 | 0.409 | 0.465 | 1.2 | 0.36 | 0.865 | 0.414 | 0.616 | 0.547 | 0.385
14 | ISTAGYSFPEL [EDAR_Y406_I408F] | 0.886 | 0.526 | 0.523 | 0.457 | 0.532 | 0.425 | 0.878 | 0.437 | 0.461 | 1.03 | 0.698 | 0.737 | 0.487 | 0.854 | 0.957 | 6.7
15 | ITNLLYHVVSW [GBA_Y412_G416S] | 1.46 | 8.05 | 5.99 | 9.38 | 7.83 | 5.89 | 1.35 | 3.23 | 4.84 | 3.17 | 7.13 | 3.22 | 3.8 | 1.25 | 1.15 | 0.944
16 | ITVCDYTNPCT [MYD88_Y276] | 1.66 | 0.583 | 0.691 | 0.521 | 0.719 | 0.395 | 1.02 | 0.401 | 0.415 | 1.11 | 0.426 | 0.651 | 1.26 | 0.968 | 0.603 | 0.701
17 | IVAREYFSEAD [CAMK2A_Y106_YF] | 1.09 | 0.6 | 0.657 | 0.508 | 0.752 | 0.563 | 1.16 | 0.538 | 0.5 | 0.965 | 0.472 | 0.728 | 0.491 | 0.9 | 0.867 | 0.566

Row | Sequence | phosphorylation enrichment (AncSZ) | phosphorylation enrichment (EPHB1) | phosphorylation enrichment (EPHB2) | phosphorylation enrichment (FGFR1) | phosphorylation enrichment (FGFR3) | phosphorylation enrichment (Fer (mouse)) | phosphorylation enrichment (Fes) | phosphorylation enrichment (Fyn) | phosphorylation enrichment (Hck) | phosphorylation enrichment (Jak2) | phosphorylation enrichment (MERTK) | phosphorylation enrichment (c-Abl (mouse)) | phosphorylation enrichment (c-Src) | SH2 binding enrichment (Grb2 SH2) | SH2 binding enrichment (SHP2-C SH2) | SH2 binding enrichment (c-Src SH2)
18 | IVFVICDEVVK [SLC25A1_Y297_Y297C] | 1.15 | 0.652 | 0.555 | 0.484 | 0.833 | 0.498 | 1.25 | 0.442 | 0.501 | 1.01 | 0.333 | 0.55 | 0.393 | 1.12 | 1.03 | 0.734
19 | IVTLKYPIEHG [ACTB_Y69_L65V] | 0.698 | 0.434 | 0.412 | 0.523 | 0.702 | 0.489 | 0.76 | 0.483 | 0.466 | 0.74 | 0.481 | 0.871 | 0.422 | 0.77 | 0.807 | 0.45
20 | KACKHYLTTRT [ZBTB5_Y118] | 0.712 | 0.46 | 0.507 | 0.448 | 0.64 | 0.534 | 0.964 | 0.505 | 0.501 | 0.978 | 0.563 | 0.859 | 0.659 | 1.7 | 1.4 | 1.43
21 | KAESWYQTKYE [KRT75_Y342_E337K] | 0.763 | 0.399 | 0.524 | 0.367 | 0.491 | 0.57 | 0.698 | 0.485 | 0.459 | 0.471 | 0.433 | 0.396 | 0.457 | 0.805 | 0.648 | 0.479
22 | KCCCIYEKPRA [PPP1R11_Y64] | 2.23 | 1.07 | 1.06 | 0.523 | 0.814 | 8.2 | 1.46 | 1.95 | 2.67 | 1.34 | 1.65 | 7.54 | 3.6 | 0.879 | 0.705 | 0.478
23 | KDHPDYKFQRR [SOX10_Y171_P175R_YF] | 0.696 | 0.338 | 0.387 | 0.338 | 0.423 | 0.612 | 0.631 | 0.321 | 0.382 | 0.615 | 0.389 | 0.667 | 0.446 | 1 | 0.701 | 0.736
24 | KEAALYPHLPP [SQSTM1_Y383] | 0.67 | 0.414 | 0.373 | 0.459 | 0.649 | 0.42 | 0.796 | 0.391 | 0.362 | 1.04 | 0.391 | 0.669 | 0.48 | 0.763 | 0.708 | 0.474
25 | KFACSYTPVKA [FLNB_Y708_T703K_YF] | 0.811 | 0.521 | 0.502 | 0.497 | 0.579 | 0.462 | 0.895 | 0.472 | 0.509 | 0.747 | 0.481 | 0.577 | 0.459 | 0.862 | 1.99 | 0.978
26 | KFLENYFDLKK [MMP3_Y41_YF] | 1.06 | 1.94 | 0.751 | 2.51 | 1.75 | 0.467 | 1.27 | 0.448 | 0.543 | 1.26 | 0.446 | 0.816 | 0.499 | 0.886 | 0.709 | 0.604
27 | KFLENYLNCLL [PLD2_Y169_R172C_YF] | 1.23 | 0.748 | 0.676 | 0.759 | 0.859 | 0.532 | 1.17 | 0.497 | 0.474 | 1.23 | 0.461 | 0.91 | 0.572 | 1.45 | 1.61 | 1.25
28 | KGEDFYCVTCP [FHL1_Y149_H154P] | 1.47 | 0.586 | 0.589 | 1.15 | 1.04 | 2.65 | 1.01 | 4.22 | 2.96 | 1.33 | 6.08 | 0.646 | 3.64 | 1.01 | 0.644 | 1.04
29 | KGLMPYGQPRP [SRRT_Y798_Q793K] | 0.444 | 0.365 | 0.371 | 0.388 | 0.366 | 0.363 | 0.727 | 0.36 | 0.325 | 0.426 | 0.527 | 0.455 | 0.378 | 0.923 | 0.986 | 0.558
30 | KGNMFYENSFA [EGFR_Y113_R108K_YF] | 0.76 | 0.503 | 0.463 | 0.332 | 0.535 | 1.8 | 0.705 | 0.412 | 0.449 | 0.751 | 0.484 | 0.645 | 0.45 | 19.5 | 1 | 2.98
31 | KHTLSYVDVGT [SDHA_Y629] | 0.703 | 0.573 | 0.42 | 0.724 | 0.589 | 0.392 | 0.685 | 0.348 | 0.431 | 0.552 | 0.295 | 0.53 | 0.283 | 0.817 | 0.967 | 0.759
32 | KIIRWYVSSEG [ANK2_Y3907_R3906W] | 1.31 | 0.69 | 0.679 | 0.55 | 0.784 | 0.543 | 1.34 | 0.51 | 0.498 | 1.2 | 0.415 | 0.747 | 0.455 | 1.19 | 1.51 | 1.18
33 | KIKGWYEKCEP [KRT26_Y119] | 0.996 | 0.594 | 0.573 | 0.515 | 0.779 | 0.541 | 1.21 | 0.442 | 0.527 | 1.07 | 0.446 | 0.786 | 0.47 | 0.935 | 0.693 | 1.26
